# According to the supplement of paper PMC10126150:
# ± gives the standard deviation of the averaged measurements.
# Tested on: ATP
# Experiment: switch fluorescence ratio, 500 uM ATP over buffer (Cy3 cluster intensity, sum of 5 cycles each) (fold (ratio)); higher = stronger signal-on switching upon ATP binding; sequences stand for … in TCGTCGGCAGCGTCAGATGTGTATAAGAGACAGTTTTTTTTTTTTTTTTTTTTTTTTT…TC
# Conditions: aptamer strand: ATP DNA aptamer (quencher-CACCTGGGGGAGTATTGCGGAGGAAGG + anchor), 100 nM annealed; ATP concentration: 500 uM
# Method in brief: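 Clusters carrying Cy3-labelled switching strands on a modified Illumina MiSeq flow-cell were annealed to 100 nM quencher-labelled ATP aptamer and imaged in selection buffer. They were imaged again after 15 min with 500 uM ATP at 22 °C, over five buffer/ATP cycles with NaOH stripping and re-annealing in between. For each cluster, the fluorescence ratio is the summed Cy3 intensity of the target cycles divided by that of the buffer cycles, averaged per switch-domain sequence. Clusters outside 100-1000 RFU were left out.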
# 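Note: ATP exposure 15 min at 22 °C before imaging.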
row,Sequence,switch fluorescence ratio
1,CGTTAAATGT,0.998 ± 0.022
2,TGACGAACTC,1.32 ± 0.045
3,CGATGGTGTC,1.01 ± 0.036
4,GGTGGGGGCA,0.979 ± 0.029
5,TAATGCGGGA,1 ± 0.027
6,TTCGGGTGGC,1.02 ± 0.051
7,ATGGTCTGTT,1 ± 0.036
8,CGGGTCCTAA,0.9795 ± 0.0078
9,TGAGGGCGGC,0.962 ± 0.12
10,ACTAATACGA,2.41 ± 1.8
11,GGTAATTTTG,0.996 ± 0.061
12,ATTTAGGACA,1.01 ± 0.021
13,ACGAGTTAGG,1.044 ± 0.0014
14,TGGAGTAGC,1.07 ± 0.078
15,GCCGGGCGGG,0.999 ± 0.038
16,GTGGAGGCGC,0.989 ± 0.023
17,TTGGGGCATG,0.971 ± 0.011
18,AGGACCGTTA,1 ± 0.031
19,GCGGGGCGTA,0.995 ± 0.016
20,AATGCGGTTC,0.9709 ± 0.0026
21,ACGTCTACGC,1.101 ± 0.0031
22,GTCGAAGGGT,1 ± 0.048
23,TAAATTCCGA,1.07 ± 0.038
24,AGGGTCAGCT,1.02 ± 0.014
25,CTTGTGGGGT,0.978 ± 0.021

row,Sequence,switch fluorescence ratio
1,TGAGTGACTT,0.974 ± 0.012
2,CGGTAGGAAC,1.01 ± 0.028
3,ATACTGACAT,1.2 ± 0.053
4,TAGCCGGCGT,1.01 ± 0.013
5,GGCGCTTGGG,0.986 ± 0.022
6,TCGATTATTT,1.016 ± 0.0059
7,TGGGGAGTGG,1.02 ± 0.065
8,GCGTTTCTAG,0.992 ± 0.028
9,CGTGAGGCAG,0.978 ± 0.056
10,TTAAGGGCTT,1.01 ± 0.021
11,GGGACATGTA,0.98 ± 0.022
12,TCCTTTTTGC,1.07 ± 0.069
13,TAATGGCCTT,0.9862 ± 0.0021
14,ATCTCATAGT,1 ± 0.025
15,TTATATGTGA,1.04 ± 0.011
16,ATTCTCGTGC,1.012 ± 0.0074
17,TTAAGGTATG,0.997 ± 0.019
18,TGACACTTGG,0.99 ± 0.011
19,TTTACGGGGA,1 ± 0.022
20,CAGGGGGGCT,1.04 ± 0.057
21,TAGTCCGGGC,1 ± 0.076
22,TATAGGCTTC,1 ± 0.023
23,GATGTATGGA,0.997 ± 0.027
24,CATTAGGGGG,1.04 ± 0.037
25,TAGACAATTT,1 ± 0.00074

row,Sequence,switch fluorescence ratio
1,AATCGAGGGA,1 ± 0.027
2,GGGTACGCAG,1.01 ± 0.029
3,TAGGAGAGTT,0.994 ± 0.036
4,AAACTCTTGT,1.01 ± 0.0033
5,TCTGAAGGGG,1.12 ± 0.11
6,GTGGTTAAGA,0.9961 ± 0.002
7,TCTCGTACAG,0.982 ± 0.024
8,TTTGGTGGCT,1.01 ± 0.015
9,ATCTGTTAGG,1.03 ± 0.041
10,CTATTCGGCC,0.986 ± 0.02
11,CAGCGGGGTG,1.11 ± 0.15
12,TGCGGGTGCT,1.04 ± 0.042
13,GAAGGGGTCG,1.05 ± 0.046
14,AAACAGCGTG,1.01 ± 0.017
15,GGGGGGCGTC,1.02 ± 0.016
16,AATCAAGAGT,1.028 ± 0.0031
17,TGTGTTTAAA,0.967 ± 0.021
18,TTCGGAAAGA,1.013 ± 0.0082
19,CTGGGGTTTC,0.997 ± 0.026
20,TTTGAAAAGT,1.022 ± 0.0028
21,TGTAGTGAA,1.1 ± 0.16
22,GGAGAGGAAT,1.01 ± 0.044
23,CTTATCGTTC,1.02 ± 0.013
24,GGTCTGATTG,1.01 ± 0.065
25,TGCAGGATGC,0.971 ± 0.027

row,Sequence,switch fluorescence ratio
1,GATATAAACG,1.02 ± 0.03
2,CTGAACGAAT,1.43 ± 0.034
3,AGATGTTTGG,0.956 ± 0.027
4,TCTTAGTTCG,1.008 ± 0.01
5,ACGATGGGCA,1.05 ± 0.015
6,GATGTGTCCG,0.956 ± 0.086
7,GATTGAAGCC,0.962 ± 0.064
8,TTAGGGACAA,1.039 ± 0.0064
9,TCAAGTTCTT,1.03 ± 0.031
10,GATGGGGGGA,1.01 ± 0.029
11,TCCAGGGGAG,1.13 ± 0.032
12,TGGTTCATGT,0.9939 ± 0.008
13,TTTTGGGACG,0.993 ± 0.082
14,ATGTATAGGG,1 ± 0.0019
15,GAACTGTTTT,0.987 ± 0.018
16,GACAGAATGT,0.976 ± 0.023
17,CTAAAATGAA,1.03 ± 0.018
18,AGAAGGGGTT,1.04 ± 0.053
19,GATACACCCG,1.153 ± 0.0039
20,CGGTTATAAG,0.9679 ± 0.00054
21,TAGAGGAGCT,1 ± 0.038
22,ACCTGCAATT,2.96 ± 0.044
23,GGCATTGGGT,1.0068 ± 0.00028
24,GTCGGGCCCG,1.01 ± 0.06
25,CGTGACCGCC,1.08 ± 0.028
